B1: Transcription factor SOX-11, residues 50 to 117; numbered along this chain, P35716 (parent)
chain: KRPMNAFMVWSKIERRKIMEQSPDMHNAEISKRLGKRWKMLKDSEKIPFIREAERLRLKHMADYPDYK

Variants of: B1
Assay: abundance fitness (aPCA) (normalised: wild type 0, dead -1); higher = more abundant; growth selection in yeast, the domain comes from the species named
Details: Homo sapiens

Abundance fitness, by site and new letter:
K32: D 0.047 | W -0.137 | T -0.308 | E 0.245 | M -0.17 | Q -0.061 | L -0.175 | F -0.329 | G -0.245 | H -0.036 | V -0.101 | A 0 | P -0.672 | I -0.145 | N -0.185 | S -0.253
E45: S -0.828 | Y -0.395 | W -0.447 | Q -0.282 | H -0.45 | R -0.891 | I -0.336 | N -0.439 | T -0.942 | C -0.548 | P -0.918 | G -1.04 | V -0.425 | F -0.297 | K -0.667 | M -0.314 | L -0.221
K36: F -0.149 | H -0.036 | W -0.535 | I 0.199 | L 0.034 | C -0.166 | T 0.155 | A 0.084 | V 0.052 | R -0.011 | G -0.219 | N 0.094 | Y 0.041 | M -0.047 | P -0.868 | D 0.247
W38: G -0.865 | Y -0.641 | F -0.801 | A -0.568 | Q -0.068 | K -0.375 | V -0.766 | T -1.05 | C -0.644 | N -0.914 | L -0.994 | I -0.716 | R -0.653 | S -0.59 | E -1.27 | P -1 | D -0.696 | M -0.717 | H -0.851
L34: M -0.547 | Y -0.826 | C -0.522 | R -0.763 | V -0.531 | K -1.29 | N -0.82 | H -0.846 | F -0.68 | W -0.909 | A -0.938 | E -0.891 | P -0.222 | S -0.719 | Q -0.638 | D -0.685
L41: R -0.762 | E -1.04 | F -0.791 | P -1.14 | Y -0.753 | S -0.604 | W -0.867 | G -0.702 | A -0.671 | H -0.951 | D -0.849 | V -0.53 | N -0.849 | I -0.652 | Q -0.721 | K -0.666 | C -0.876
M40: E 0.354 | Y -0.383 | P -0.711 | N -0.022 | F -0.404 | I -0.605 | T -0.05 | D 0.111 | L 0.011 | S 0.023 | Q 0.361 | H -0.119 | R -0.372 | C -0.191 | W -0.503 | V -0.665 | K 0.29
R33: D 0.169 | H -0.008 | N -0.008 | S 0 | Y 0.167 | Q 0.465 | A 0.22 | T 0.367 | C 0.178 | K -0.075 | L 0.438 | P -0.75 | G -0.54 | F -0.001 | E 0.343 | W 0.125
K42: F -0.673 | C -0.424 | Y -0.525 | R -0.278 | L -0.315 | I -0.526 | V -0.431 | M -0.161 | W -0.706 | G -0.221 | H -0.235 | P 0.021 | N 0.051 | A -0.058 | D -0.263 | E -0.387
E29: Y -0.969 | A -0.436 | G -0.792 | Q -0.517 | P -0.866 | C -0.767 | H -0.666 | K -0.363 | R -1.1 | S -0.638 | T -0.753 | L -0.798 | I -0.815
I30: G -0.67 | P -0.708 | K -1.09 | C -0.304 | S -0.682 | V 0.039 | W -0.611 | R -0.879 | D -0.779 | Y -0.596 | Q -0.797 | H -0.733 | N -0.701 | M -0.711
R37: A 0.117 | F -0.764 | L -0.085 | K -0.039 | H -0.129 | C -0.346 | I -0.123 | T 0.205 | V -0.271 | G 0.01 | E 0.188 | M -0.058 | N 0.001 | W -0.418 | P -1.13 | D -0.27 | Q 0.073 | Y -0.59
D43: P 0.009 | Y -0.191 | V -0.397 | H -0.129 | L -0.077 | E -0.127 | G -0.402 | F -0.047 | K -0.205 | M -0.079 | C -0.448 | I -0.272 | S -0.339
I47: C -0.567 | G -0.259 | H -0.46 | E 0.259 | K -0.198 | A 0.061 | F -0.23 | D -0.107 | L 0.162
S44: Q 0.585 | C -0.089 | G -0.208 | N -0.29 | I 0.005 | K -0.492 | W -0.037 | Y -0.024 | H -0.053 | E 0.274 | M -0.362 | P -0.752 | R -0.24 | T -0.215 | F -0.132 | D 0.169
G35: V 0.25 | I 0.173 | K 0.484 | A 0.152 | S 0.315 | M 0.17 | E 0.519 | Y 0.126 | R 0.142 | T 0.262 | L 0.162 | C 0.129 | Q 0.212 | W -0.207 | P -0.234 | H 0.266 | D 0.25
K46: L -0.982 | T -0.619 | D -0.777 | I -0.595 | W -0.995 | Y -0.968 | A -0.871 | E -0.74 | G -0.671 | H -0.718 | P -0.844 | C -0.848 | S -0.996 | V -0.647 | M -0.85 | F -0.987
K39: E -0.075 | W -1.03 | C -0.452 | L -0.274 | Q 0.05 | S -0.148 | D 0.008 | G -0.084 | H -0.473 | R -0.119 | V -0.395 | P -0.868 | F -0.455 | M -0.211 | N -0.045 | Y -0.683
S31: C -0.2 | G -0.278 | F -0.246 | M -0.333 | W -0.3 | K -0.096 | Q -0.213 | A 0.143 | H -0.244 | Y -0.262 | N 0.195 | D 0.176 | L -0.2 | P -0.855 | V -0.064 | R -0.311 | E 0.489 | T 0.029
N27: P 0.4 | Y -0.213 | E 0.333 | W 0.105 | M -0.287 | D 0.403 | T -0.033 | R -0.341 | H 0.139 | V -0.178 | L -0.279 | S 0.07 | C -0.08 | Q 0.205 | G -0.096 | F -0.128 | K -0.178
A28: N -0.24 | T -0.134 | M -0.529 | Q -0.247 | I -0.205 | L -0.211 | C -0.268 | P -0.562 | W -0.425 | D 0.205 | R -0.266 | G -0.205 | K -0.278 | H -0.183 | Y -0.34 | E -0.061 | F -0.47

— the Human Domainome abundance scans (Beltran et al. 2025)
